Laboratory results as given in PMC10786891, “Massively parallel profiling of RNA-targeting CRISPR-Cas13d”.

Biological target: T1, EsCas13d, nuclease-dead (Eubacterium siraeum, UniProt B0MS50, R295A;H300A;R849A;H854A)
T1 sequence: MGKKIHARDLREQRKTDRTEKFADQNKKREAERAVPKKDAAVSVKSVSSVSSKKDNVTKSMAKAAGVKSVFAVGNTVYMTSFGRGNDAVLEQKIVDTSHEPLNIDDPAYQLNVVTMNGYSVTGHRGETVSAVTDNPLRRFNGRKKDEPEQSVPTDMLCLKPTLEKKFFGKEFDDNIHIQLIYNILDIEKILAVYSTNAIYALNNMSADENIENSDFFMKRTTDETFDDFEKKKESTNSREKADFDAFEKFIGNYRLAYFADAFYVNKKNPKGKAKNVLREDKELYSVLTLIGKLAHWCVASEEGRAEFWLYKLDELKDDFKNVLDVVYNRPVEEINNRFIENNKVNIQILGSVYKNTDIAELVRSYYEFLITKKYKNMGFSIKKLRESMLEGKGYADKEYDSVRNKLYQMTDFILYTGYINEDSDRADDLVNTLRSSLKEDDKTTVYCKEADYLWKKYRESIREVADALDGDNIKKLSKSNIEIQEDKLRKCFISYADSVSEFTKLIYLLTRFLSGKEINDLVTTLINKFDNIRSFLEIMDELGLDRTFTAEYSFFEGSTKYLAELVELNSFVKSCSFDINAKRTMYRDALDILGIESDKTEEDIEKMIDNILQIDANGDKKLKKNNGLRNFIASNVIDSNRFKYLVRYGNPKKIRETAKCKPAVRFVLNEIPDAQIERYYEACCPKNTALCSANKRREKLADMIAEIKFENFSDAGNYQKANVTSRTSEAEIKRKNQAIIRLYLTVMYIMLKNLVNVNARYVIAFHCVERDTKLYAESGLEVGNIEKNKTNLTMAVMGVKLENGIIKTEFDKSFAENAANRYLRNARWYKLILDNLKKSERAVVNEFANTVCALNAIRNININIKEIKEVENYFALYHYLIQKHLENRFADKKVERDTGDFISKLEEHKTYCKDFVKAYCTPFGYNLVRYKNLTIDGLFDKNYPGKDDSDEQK
Assay: crRNA (strand 1, pre-loaded); Mg2+; 40 mM Tris-HCl pH 7.5, 150 mM NaCl, 6 mM MgCl2, 1 mM DTT, 0.1% Tween-20, 0.2 mg/ml BSA; 25 C; 10 min per concentration, then washed
Settings: tags: His6-TwinStrep-SUMO cleaved; N-terminal SNAP kept (SNAP-Surface 488); label: 3' end held by stalled T7 RNA polymerase

B1: target 1 MT 5'PFS CCU 3'PFS UCC (mixed)
RNA 1: CACCCGUGCAAAAAUGCAGGGGUCUAAAACUGAGCGGAUAACCUCUCUAUGG
RNA 2: GGGAAUGGAUCCACAUCUACGAAUUCCCUCCAUAGAGAGGUUAUCCGCUCAUCCAGAUCGGAAGAGCACACGU
Work on B1 yielded a Kd of 14 ± 5 nM.

B2: target 1 MT 5'PFS AAA 3'PFS UGU (mixed)
RNA 1: CACCCGUGCAAAAAUGCAGGGGUCUAAAACUGAGCGGAUAACCUCUCUAUGG
RNA 2: GGGAAUGGAUCCACAUCUACGAAUUCAAACCAUAGAGAGGUUAUCCGCUCAUGUAGAUCGGAAGAGCACACGU
Binder B2 has a Kd of 40.5 ± 14.5 nM.

B3: target 1 MT 5'PFS GGG 3'PFS AAA (mixed)
RNA 1: CACCCGUGCAAAAAUGCAGGGGUCUAAAACUGAGCGGAUAACCUCUCUAUGG
RNA 2: GGGAAUGGAUCCACAUCUACGAAUUCGGGCCAUAGAGAGGUUAUCCGCUCAAAAAGAUCGGAAGAGCACACGU
B3 gave a Kd of 50 ± 11.5 nM.

B4: target 1 MT 5'PFS AAA 3'PFS UGA (mixed)
RNA 1: CACCCGUGCAAAAAUGCAGGGGUCUAAAACUGAGCGGAUAACCUCUCUAUGG
RNA 2: GGGAAUGGAUCCACAUCUACGAAUUCAAACCAUAGAGAGGUUAUCCGCUCAUGAAGAUCGGAAGAGCACACGU
B4 showed a Kd of 20.1 ± 3.45 nM.

B5: target 1 MT 5'PFS CUC 3'PFS UAU (mixed)
RNA 1: CACCCGUGCAAAAAUGCAGGGGUCUAAAACUGAGCGGAUAACCUCUCUAUGG
RNA 2: GGGAAUGGAUCCACAUCUACGAAUUCCUCCCAUAGAGAGGUUAUCCGCUCAUAUAGAUCGGAAGAGCACACGU
B5 was tested, and the Kd was ~60 nM.

B6: target 1 insC 3' of 20,insU 3' of 2 (mixed)
RNA 1: CACCCGUGCAAAAAUGCAGGGGUCUAAAACUGAGCGGAUAACCUCUCUAUGG
RNA 2: GGGAAUGGAUCCACAUCUACGAAUUCGUACCACUAGAGAGGUUAUCCGCUCUACCGAGAUCGGAAGAGCACACGU
For B6, the Kd was 14.7 ± 1 nM.

B7: target 1 MT 5'PFS GAC 3'PFS CGA (mixed)
RNA 1: CACCCGUGCAAAAAUGCAGGGGUCUAAAACUGAGCGGAUAACCUCUCUAUGG
RNA 2: GGGAAUGGAUCCACAUCUACGAAUUCGACCCAUAGAGAGGUUAUCCGCUCACGAAGAUCGGAAGAGCACACGU
B7 was tested, and the Kd was ~20 nM.

B8: target 1 MT 5'PFS GGC 3'PFS UGG (mixed)
RNA 1: CACCCGUGCAAAAAUGCAGGGGUCUAAAACUGAGCGGAUAACCUCUCUAUGG
RNA 2: GGGAAUGGAUCCACAUCUACGAAUUCGGCCCAUAGAGAGGUUAUCCGCUCAUGGAGAUCGGAAGAGCACACGU
B8 showed a Kd of ~60 nM.

B9: target 1 MT 5'PFS UAA 3'PFS UAA (mixed)
RNA 1: CACCCGUGCAAAAAUGCAGGGGUCUAAAACUGAGCGGAUAACCUCUCUAUGG
RNA 2: GGGAAUGGAUCCACAUCUACGAAUUCUAACCAUAGAGAGGUUAUCCGCUCAUAAAGAUCGGAAGAGCACACGU
For B9, the Kd was 46.5 ± 12 nM.

B10: target 1 MT 5'PFS UUG 3'PFS CCU (mixed)
RNA 1: CACCCGUGCAAAAAUGCAGGGGUCUAAAACUGAGCGGAUAACCUCUCUAUGG
RNA 2: GGGAAUGGAUCCACAUCUACGAAUUCUUGCCAUAGAGAGGUUAUCCGCUCACCUAGAUCGGAAGAGCACACGU
With B10 the Kd was 19.6 ± 4.1 nM.

B11: target 1 MT 5'PFS UCG 3'PFS AAU (mixed)
RNA 1: CACCCGUGCAAAAAUGCAGGGGUCUAAAACUGAGCGGAUAACCUCUCUAUGG
RNA 2: GGGAAUGGAUCCACAUCUACGAAUUCUCGCCAUAGAGAGGUUAUCCGCUCAAAUAGAUCGGAAGAGCACACGU
B11 was tested, and the Kd was 30 ± 11 nM.

B12: target 1 MT 5'PFS UAA 3'PFS UAU (mixed)
RNA 1: CACCCGUGCAAAAAUGCAGGGGUCUAAAACUGAGCGGAUAACCUCUCUAUGG
RNA 2: GGGAAUGGAUCCACAUCUACGAAUUCUAACCAUAGAGAGGUUAUCCGCUCAUAUAGAUCGGAAGAGCACACGU
In the case of B12, the Kd is reported as 29 ± 6 nM.

B13: target 1 MT 5'PFS UCG 3'PFS AAA (mixed)
RNA 1: CACCCGUGCAAAAAUGCAGGGGUCUAAAACUGAGCGGAUAACCUCUCUAUGG
RNA 2: GGGAAUGGAUCCACAUCUACGAAUUCUCGCCAUAGAGAGGUUAUCCGCUCAAAAAGAUCGGAAGAGCACACGU
Binder B13 has a Kd of 23 ± 8 nM.

B14: target 1 MT 5'PFS GGC 3'PFS UGA (mixed)
RNA 1: CACCCGUGCAAAAAUGCAGGGGUCUAAAACUGAGCGGAUAACCUCUCUAUGG
RNA 2: GGGAAUGGAUCCACAUCUACGAAUUCGGCCCAUAGAGAGGUUAUCCGCUCAUGAAGAUCGGAAGAGCACACGU
In the case of B14, the Kd is reported as 11.7 ± 1.45 nM.

B15: target 1 MT 5'PFS GAC 3'PFS CGC (mixed)
RNA 1: CACCCGUGCAAAAAUGCAGGGGUCUAAAACUGAGCGGAUAACCUCUCUAUGG
RNA 2: GGGAAUGGAUCCACAUCUACGAAUUCGACCCAUAGAGAGGUUAUCCGCUCACGCAGAUCGGAAGAGCACACGU
For B15, the Kd was 48.5 ± 14 nM.

B16: target 1 MT 5'PFS UAA 3'PFS UAC (mixed)
RNA 1: CACCCGUGCAAAAAUGCAGGGGUCUAAAACUGAGCGGAUAACCUCUCUAUGG
RNA 2: GGGAAUGGAUCCACAUCUACGAAUUCUAACCAUAGAGAGGUUAUCCGCUCAUACAGAUCGGAAGAGCACACGU
With B16 the Kd was 28 ± 7.5 nM.

B17: target 1 MT 5'PFS GAC 3'PFS CGU (mixed)
RNA 1: CACCCGUGCAAAAAUGCAGGGGUCUAAAACUGAGCGGAUAACCUCUCUAUGG
RNA 2: GGGAAUGGAUCCACAUCUACGAAUUCGACCCAUAGAGAGGUUAUCCGCUCACGUAGAUCGGAAGAGCACACGU
Work on B17 yielded a Kd of 15.5 ± 5 nM.

B18: target 1 MT 5'PFS UUG 3'PFS ACC (mixed)
RNA 1: CACCCGUGCAAAAAUGCAGGGGUCUAAAACUGAGCGGAUAACCUCUCUAUGG
RNA 2: GGGAAUGGAUCCACAUCUACGAAUUCUUGCCAUAGAGAGGUUAUCCGCUCAACCAGAUCGGAAGAGCACACGU
With B18 the Kd was 53 ± 23.5 nM.

B19: target 1 insA 3' of 11,insG 3' of 2 (mixed)
RNA 1: CACCCGUGCAAAAAUGCAGGGGUCUAAAACUGAGCGGAUAACCUCUCUAUGG
RNA 2: GGGAAUGGAUCCACAUCUACGAAUUCGUACCAUAGAGAGGUAUAUCCGCUCGACCGAGAUCGGAAGAGCACACGU
Binder B19 has a Kd of 17.4 ± 0.8 nM.

B20: target 1 MT 5'PFS GCC 3'PFS CUU (mixed)
RNA 1: CACCCGUGCAAAAAUGCAGGGGUCUAAAACUGAGCGGAUAACCUCUCUAUGG
RNA 2: GGGAAUGGAUCCACAUCUACGAAUUCGCCCCAUAGAGAGGUUAUCCGCUCACUUAGAUCGGAAGAGCACACGU
B20 was tested, and the Kd was 15.6 ± 5.05 nM.

B21: target 1 MT 5'PFS UCC 3'PFS ACU (mixed)
RNA 1: CACCCGUGCAAAAAUGCAGGGGUCUAAAACUGAGCGGAUAACCUCUCUAUGG
RNA 2: GGGAAUGGAUCCACAUCUACGAAUUCUCCCCAUAGAGAGGUUAUCCGCUCAACUAGAUCGGAAGAGCACACGU
B21 gave a Kd of 14 ± 5 nM.

B22: target 1 MT 5'PFS GAC 3'PFS CGG (mixed)
RNA 1: CACCCGUGCAAAAAUGCAGGGGUCUAAAACUGAGCGGAUAACCUCUCUAUGG
RNA 2: GGGAAUGGAUCCACAUCUACGAAUUCGACCCAUAGAGAGGUUAUCCGCUCACGGAGAUCGGAAGAGCACACGU
B22 gave a Kd of ~35 nM.

B23: target 1 MT 5'PFS AGU 3'PFS UCC (mixed)
RNA 1: CACCCGUGCAAAAAUGCAGGGGUCUAAAACUGAGCGGAUAACCUCUCUAUGG
RNA 2: GGGAAUGGAUCCACAUCUACGAAUUCAGUCCAUAGAGAGGUUAUCCGCUCAUCCAGAUCGGAAGAGCACACGU
For B23, the Kd was 29 ± 11.5 nM.

B24: target 1 MT 5'PFS CUU 3'PFS CCC (mixed)
RNA 1: CACCCGUGCAAAAAUGCAGGGGUCUAAAACUGAGCGGAUAACCUCUCUAUGG
RNA 2: GGGAAUGGAUCCACAUCUACGAAUUCCUUCCAUAGAGAGGUUAUCCGCUCACCCAGAUCGGAAGAGCACACGU
Work on B24 yielded a Kd of 80 ± 40 nM.

B25: target 1 MT 5'PFS UCC 3'PFS ACG (mixed)
RNA 1: CACCCGUGCAAAAAUGCAGGGGUCUAAAACUGAGCGGAUAACCUCUCUAUGG
RNA 2: GGGAAUGGAUCCACAUCUACGAAUUCUCCCCAUAGAGAGGUUAUCCGCUCAACGAGAUCGGAAGAGCACACGU
B25 showed a Kd of ~71.5 nM.

B26: target 1 MT 5'PFS CUU 3'PFS ACC (mixed)
RNA 1: CACCCGUGCAAAAAUGCAGGGGUCUAAAACUGAGCGGAUAACCUCUCUAUGG
RNA 2: GGGAAUGGAUCCACAUCUACGAAUUCCUUCCAUAGAGAGGUUAUCCGCUCAACCAGAUCGGAAGAGCACACGU
In the case of B26, the Kd is reported as ~24 nM.

B27: target 1 MT 5'PFS AGG 3'PFS UGC (mixed)
RNA 1: CACCCGUGCAAAAAUGCAGGGGUCUAAAACUGAGCGGAUAACCUCUCUAUGG
RNA 2: GGGAAUGGAUCCACAUCUACGAAUUCAGGCCAUAGAGAGGUUAUCCGCUCAUGCAGAUCGGAAGAGCACACGU
With B27 the Kd was ~110 nM.

B28: target 1 MT 5'PFS CCU 3'PFS UCG (mixed)
RNA 1: CACCCGUGCAAAAAUGCAGGGGUCUAAAACUGAGCGGAUAACCUCUCUAUGG
RNA 2: GGGAAUGGAUCCACAUCUACGAAUUCCCUCCAUAGAGAGGUUAUCCGCUCAUCGAGAUCGGAAGAGCACACGU
Work on B28 yielded a Kd of 14.2 ± 4.1 nM.
